For the data set the following is noted: Bacillus amyloliquefaciens; pH 6.3; 25 °C; Urea; Fluorescence; MES-NaOH 450 mM; reversible: yes; whole UniProt chain shown.

1 protein from FireProtDB (doi:10.1016/0022-2836(92)90562-x) can be followed below.

B1: Ribonuclease wild type, P00648 (protein)
chain: MMKMEGIALKKRLSWISVCLLVLVSAAGMLFSTAAKTETSSHKAHTEAQVINTFDGVADYLQTYHKLPDNYITKSEAQALGWVASKGNLADVAPGKSIGGDIFSNREGKLPGKSGRTWREADINYTSGFRNSDRILYSSDWLIYKTTDHYQTFTKIR
B1: the denaturant m value is 1.93 kcal/mol/M, the “denaturant midpoint (higher = more stable)” value is 4.57 M and the unfolding free energy came to 8.82 kcal/mol.
